± gives the half width of the 95% confidence interval.

Series [1] in a line: folding stability dG unfold from trypsin proteolysis; higher = more stable. The essentials:
(§1)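 Unfolding free energy was derived, per protease or combined, by relating Bayesian-fitted K50 values from sequencing counts to a sequence-predicted unfolded-state K50 and a shared folded-state K50. The underlying digests exposed cysteine-free mini-proteins under 80 residues, in a PA-tagged cDNA display construct, to trypsin and chymotrypsin at 11 threefold-diluted concentrations and to a no-protease condition. A filter kept only designs with AlphaFold2 dimer inter-PAE above 15.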

The nature of series [2]: folding stability dG unfold (combined trypsin and chymotrypsin); higher = more stable. The essentials:
as §1

Series [3] is described as follows: folding stability dG unfold from chymotrypsin proteolysis; higher = more stable. The essentials: as §1

Turning to “SAGGSAGGSAGVSTTPDGVLVIKVKDPNTGKYTEIKVPTSRPEEAEKLKEKALEEGLELESAGGSAGGSAGG [r11_538_JUSTAS]”, the “folding stability dG unfold” value in series [1] stood at 0.708 ± 0.038 kcal/mol; in series [2], 1.2 ± 0.053 kcal/mol; in series [3], 1.49 ± 0.022 kcal/mol.
On to “SAGGSAGGSAGVTVSLPDGRVVTEVTTLPDGTVVITYTKDGKKYTTTLNGSAPAPTPTLASAGGSAGGSAGG [r17_421_JUSTAS]”, for which the “folding stability dG unfold” value in series [1] was determined as 2.42 ± 0.083 kcal/mol; in series [2], 2.52 ± 0.086 kcal/mol; in series [3], 2.58 ± 0.035 kcal/mol.
For “SAGGSAGGSAGWFTVTMMFLFPNGWAIKITWTFRMDENGNLKLEWEVEIEPVPPLKPGDPSAGGSAGGSAGG [r11_728_TrROS]” the same measures were 4.38 ± 0.51 kcal/mol, over 6 kcal/mol and 6.21 ± 0.35 kcal/mol.
Regarding “SAGGSAGGSAGWIDPEDIKKIQHERNPNNGRGEMRLEFENGKPVEIEFKSPEEALDWLLKSAGGSAGGSAGG [r11_339_TrROS]”, the “folding stability dG unfold” value in series [1] was -0.547 ± 0.15 kcal/mol; in series [2] it was -0.185 ± 0.13 kcal/mol; in series [3], -0.156 ± 0.23 kcal/mol.
Regarding “SAGGSAGGSAGWIWMKVTEVNPDDGTIKIKFDGQKIKIPAKNMKIREDGDYVEIEIPEDDSAGGSAGGSAGG [r17_403_TrROS]”, the figures for the “folding stability dG unfold” value in series [1], in series [2] and in series [3] were 0.137 ± 0.16 kcal/mol, 0.228 ± 0.11 kcal/mol and 0.242 ± 0.22 kcal/mol, respectively.
For “SAGGSAGGSAGWLKLKFEFTFMIIIWNDDGNNELVMIPIRIRITMTIPPIKYDPDGKLKLSAGGSAGGSAGG [r11_558_TrROS]” the same measures were 2.87 ± 0.22 kcal/mol, 3.51 ± 0.22 kcal/mol and 3.72 ± 0.067 kcal/mol.
Taken in the same sequence, the figures for “SAGGSAGGSAGWRAKVYPPGNGEPIGTIEIPKDWTPSQIKEIADDLQKKFPPGWRVEIEDSAGGSAGGSAGG [r11_1081_TrROS]” were 1.72 ± 0.051 kcal/mol, 1.38 ± 0.12 kcal/mol and 0.904 ± 0.093 kcal/mol.
Taken in the same sequence, the figures for “SAGGSAGGSAGYIWIPAKDFAKYIAEEHEEKGYQINIPVEVRPDNWVWIDIEIQPLKPGQSAGGSAGGSAGG [r11_214_TrROS]” were 0.644 ± 0.048 kcal/mol, 1.04 ± 0.086 kcal/mol and 1.3 ± 0.096 kcal/mol.
With “SAGGSAGGSAGYLYFISIEFNLQWNGDGNLQLQPKIEIQRIEIPPPPPKWKYDGNKPKYDSAGGSAGGSAGG [r17_418_TrROS]”, the “folding stability dG unfold” value in series [1] stood at 2.44 ± 0.12 kcal/mol; in series [2], 3.04 ± 0.17 kcal/mol; in series [3] it was 3.44 ± 0.048 kcal/mol.
Regarding “SAGGSAGGSAIKAPPNSKIIKIEVKPLPNGDLLVEITIIDVPPDDSIGSGKYKILIKLEKGGSAGGSAGGSA [r18_273_TrMRF]”, the “folding stability dG unfold” value in series [1] worked out at 2.81 ± 0.3 kcal/mol; in series [2], 3.02 ± 0.26 kcal/mol; in series [3], 3.1 ± 0.16 kcal/mol.
In the case of “SAGGSAGGSAIKEIVKRIEKLFGVDVEPEQEEREVNGGRYPTLPVTVKVPPNANSPALKEASAGGSAGGSAG [r3_427_TrROS]”, the “folding stability dG unfold” value was -0.555 ± 0.4 kcal/mol in series [1], 0.021 ± 0.24 kcal/mol in series [2] and 0.636 ± 0.093 kcal/mol in series [3].
Consider “SAGGSAGGSAIKPGEKIKILVLVKDENGKEYLVKMEIEKLPDGKIKIKKVEIMSLEELKKLSAGGSAGGSAG [r3_212_TrROS_Hall]”, for which the “folding stability dG unfold” value is 1.84 ± 0.043 kcal/mol in series [1], 2.2 ± 0.13 kcal/mol in series [2] and 2.38 ± 0.029 kcal/mol in series [3].
Taken in the same sequence, the figures for “SAGGSAGGSAIPKAPVTVTVTTADGRPALATVEYYPDGVLVTVHYGDKTVTAWVAPADISASAGGSAGGSAG [r3_373_TrMRF]” were 0.864 ± 0.053 kcal/mol, 1.54 ± 0.17 kcal/mol and 2.19 ± 0.11 kcal/mol.
For “SAGGSAGGSAISIMIDDPDDLELAEEIANNIRDHFPDFPIKVEVERMPGNPDYYMIRVEWESAGGSAGGSAG [r3_131_TrROS]”, the “folding stability dG unfold” value in series [1] is 1.79 ± 0.073 kcal/mol; in series [2], 1.66 ± 0.096 kcal/mol; in series [3] it was 1.52 ± 0.042 kcal/mol.
For “SAGGSAGGSAKAVEFYFPAEEYTVEEIIDRLVKELGVPKENIKLAKVEPLENGELKVIVEIPSAGGSAGGSA [r18_118_TrMRF]”, the figures for the “folding stability dG unfold” value in series [1], in series [2] and in series [3] were 2.82 ± 0.11 kcal/mol, 3.1 ± 0.092 kcal/mol and 3.21 ± 0.12 kcal/mol, respectively.
Taken in the same sequence, the figures for “SAGGSAGGSAKEIDFKFRSPGNGEEFPFRVEIDEFDPDDGPLLIKVEMPNGKPHTFPADDILSAGGSAGGSA [r18_334_TrROS]” were 0.101 ± 0.086 kcal/mol, 0.503 ± 0.11 kcal/mol and 0.76 ± 0.15 kcal/mol.
Regarding “SAGGSAGGSAKEILIVMTPEEAEELKKELLEKLKELAKKLKIKEIKIKVYLVKYDKNGKKVSAGGSAGGSAG [r3_89_TrROS_Hall]”, the “folding stability dG unfold” value in series [1] was 1.9 ± 0.12 kcal/mol; in series [2], 2.26 ± 0.28 kcal/mol; in series [3], 2.66 ± 0.091 kcal/mol.
In the case of “SAGGSAGGSAKELLKNIEKVEIIKNKKTNKYTIRIKNKNGKVYEFEFKSLEEALKKAGIKPSAGGSAGGSAG [r3_36_TrROS_Hall]”, the “folding stability dG unfold” value was 2.24 ± 0.041 kcal/mol in series [1], 2.93 ± 0.073 kcal/mol in series [2] and 3.19 ± 0.038 kcal/mol in series [3].
As to “SAGGSAGGSAKETLRMELELEIDGVVVRVEAEVELDPETNELHIRVKVEVEPLPPPLPPGLESAGGSAGGSA [r18_16_TrROS_Hall]”, the entries for the “folding stability dG unfold” value in series [1], in series [2] and in series [3] were 1.2 ± 0.2 kcal/mol, 2.32 ± 0.33 kcal/mol and 2.53 ± 0.34 kcal/mol, respectively.
Take “SAGGSAGGSAKIKIKVKPGEKVRIYNKKTKKEIAEVEVVEVKEGKIVVKLKNGKLYEIEIEPSAGGSAGGSA [r18_363_TrROS_Hall]”: the “folding stability dG unfold” value in series [1] is 1.67 ± 0.033 kcal/mol; in series [2], 2.18 ± 0.052 kcal/mol; in series [3] it was 2.36 ± 0.06 kcal/mol.
In the case of “SAGGSAGGSAKIKPGEKVEITLKDGSKVIIEKKEDGKYLARIIDKKTNEVKTVPLDKIKLVSAGGSAGGSAG [r3_213_TrROS_Hall]”, the “folding stability dG unfold” value in series [1] came out at 0.99 ± 0.057 kcal/mol; in series [2], 1.13 ± 0.14 kcal/mol; in series [3], 1.08 ± 0.046 kcal/mol.
For “SAGGSAGGSAKIKVLIKITNKDGKKKEILLEAETEEEALEAAKKLAEKEINGKKYKIEIKPLSAGGSAGGSA [r18_457_TrROS_Hall]” the same measures were 1.83 ± 0.074 kcal/mol, 1.96 ± 0.11 kcal/mol and 2.08 ± 0.044 kcal/mol.
For “SAGGSAGGSAKIRVGGEEIELPPGKPVMFRFPENGYMIKITIKPDPKENKWKIDELKVYPMDSAGGSAGGSA [r18_222_TrROS]” the same measures were 1.13 ± 0.089 kcal/mol, 1.46 ± 0.19 kcal/mol and 1.83 ± 0.16 kcal/mol.
Regarding “SAGGSAGGSAKKITIYLPNAEVVEVEYDEETDVITIRVKNEDGSEYEFRFYPDGSVEIRPVSAGGSAGGSAG [r3_348_TrROS_Hall]”, the “folding stability dG unfold” value in series [1] worked out at 2.95 ± 0.16 kcal/mol; in series [2], 3.4 ± 0.14 kcal/mol; in series [3], 3.65 ± 0.15 kcal/mol.
For “SAGGSAGGSAKKKVIVIELPEDMTLEEALALAKALAPPGAEIVIRRDGKLYVIKIEDPEKLSAGGSAGGSAG [r3_50_TrROS_Hall]” the same measures were 2.24 ± 0.11 kcal/mol, 2.55 ± 0.17 kcal/mol and 2.82 ± 0.084 kcal/mol.
Taken in the same sequence, the figures for “SAGGSAGGSAKKKVKIKLEFDKETNTLRIEVEDEDTGEKTEIEITIKLEPPPPPPLPEELKKSAGGSAGGSA [r18_361_TrROS_Hall]” were 1.72 ± 0.18 kcal/mol, 1.73 ± 0.61 kcal/mol and 1.42 ± 0.22 kcal/mol.
Taken in the same sequence, the figures for “SAGGSAGGSAKKKVKVVEIKITYDKEKNEYYIEAKVYNENTGETKTVRIKVKLKPGQKLKFSAGGSAGGSAG [r3_1_TrROS_Hall]” were 1.65 ± 0.041 kcal/mol, 1.72 ± 0.087 kcal/mol and 1.71 ± 0.066 kcal/mol.
“SAGGSAGGSAKKTLTVTVKAEPSEGAPAIAKEVAEKLGLPDAKVLSISYDPETGELTITFEYSAGGSAGGSA [r18_481_TrMRF]”: the “folding stability dG unfold” value in series [1] came to 4.21 ± 0.2 kcal/mol; in series [2], 4.61 ± 0.14 kcal/mol; in series [3], 4.56 ± 0.097 kcal/mol.
For “SAGGSAGGSAKPDKPIKVKVTLYNPATGEKTVVEVEVPPHVKPEEVAEALRKEFGAARVEVESAGGSAGGSA [r18_58_TrMRF]” the same measures were 3.05 ± 0.086 kcal/mol, 3.08 ± 0.057 kcal/mol and 3.112 ± 0.03 kcal/mol.
Take “SAGGSAGGSAKPEAVAPAVFTLDGVPYLVPVRVLEAGLSPDQKLLVLGTLPNGEPFLAVFDASAGGSAGGSA [r18_54_TrMRF]”: the entries for the “folding stability dG unfold” value in series [1], in series [2] and in series [3] were 0.744 ± 0.058 kcal/mol, 1.27 ± 0.12 kcal/mol and 1.57 ± 0.082 kcal/mol, respectively.
Turning to “SAGGSAGGSAKPEKPEKVELKPKVKFVKVKVRLRFSFTLENGEKVEVELEATFLFVDGKLVSAGGSAGGSAG [r3_380_TrROS_Hall]”, the “folding stability dG unfold” value is 3.97 ± 0.22 kcal/mol in series [1], 5.11 ± 0.2 kcal/mol in series [2] and 5.31 ± 0.13 kcal/mol in series [3].
In the case of “SAGGSAGGSAKPKVKIKIEVTVNEDGTVTVRAEIEVNGKKYTIEVKIKIKAPKPEKVKLFKKSAGGSAGGSA [r18_507_TrROS_Hall]”, the figures for the “folding stability dG unfold” value in series [1], in series [2] and in series [3] were 0.919 ± 0.066 kcal/mol, 0.497 ± 0.48 kcal/mol and -0.2 ± 0.84 kcal/mol, respectively.
For “SAGGSAGGSAKSFWIDSPEQAEELADELQQKGPNVEPTVERDDNNGWYQLEIPNGKDIVIWGSAGGSAGGSA [r18_154_TrROS]” the same measures were -0.417 ± 0.2 kcal/mol, 0.272 ± 0.24 kcal/mol and 0.73 ± 0.19 kcal/mol.
Consider “SAGGSAGGSAKTIKVLVRDKETGEVFEVEAEIVEFDEETGELLIKVRLPNGKTLTLSAEELLSAGGSAGGSA [r18_334_TrROS_Hall]”, for which the “folding stability dG unfold” value is 2.54 ± 0.098 kcal/mol in series [1], 3.71 ± 0.21 kcal/mol in series [2] and 4.12 ± 0.1 kcal/mol in series [3].
For “SAGGSAGGSAKTLTLTTPNGDKVEVKLYELPDDFVLAEIKVLATGEKFYALLTKDGTVYLASAGGSAGGSAG [r3_15_TrMRF]”, the entries for the “folding stability dG unfold” value in series [1], in series [2] and in series [3] were 2.47 ± 0.084 kcal/mol, 3.06 ± 0.13 kcal/mol and 3.49 ± 0.15 kcal/mol, respectively.

The values are drawn from the supplement of paper PMC12764529.
